# In US9433687B2, “Anti-Notch3 antibodies and antibody-drug conjugates” (Pfizer Inc., priority 2012, dated 2016):
# B1: hu28 VH1.0/VL1.0: humanized r28 variant VH1.0/VL1.0, anti-Notch3 antibody (VH SEQ ID NO: 13, VL SEQ ID NO: 25) (antibody, V domains shown)
# VH: EVQLVESGGGLVQPGGSLRLSCAASGFTFRDYGMTWVRQAPGKGLEWVAYISSGSNYIYYAEAVKGRFTISRDNAKNSLYLQMNSLRAEDTAVYYCARRGPFVLDAWGQGTLVTVSS
# VL: DIQMTQSPSSLSASVGDRVTITCKASQSINRYLHWYQQKPGKAPKLLIYNANGLQTGVPSRFSGSGSGTDFTLTISSLQPEDFATYYCLQHNTWPDTFGGGTKVEIK
# What was measured:
# [1] = tested on: Site 2 (S2)-cleavage of the Notch3 receptor in HCC2429 and MDA-MB-468 cells; assay: S2-cleavage assay (western blot, D11B8); format: cell-based, human; settings: 5 μg/ml, 24 hours; FIG. 9
# Description: To confirm that binding of anti-Notch3 antibody hu75, but not hu28, to the NRR domain of Notch3 is accompanied by a decrease in S2-cleavage, western blot analysis was performed. The rabbit monoclonal anti-Notch3 antibody D11B8 (Cell Signaling Technologies) recognizes the Notch3 C-terminal fragments that are products of S1 and S2 proteolytic cleavage events. […] The anti-Notch3 antibody hu28 bound to LNR-C and HD1 domains that are located on a linear, covalently linked region of the NRR domain that is N-terminal to the S1-site. An inhibitory antibody is expected to decrease the detection of S2-cleaved Notch3 by stabilizing the NRR domain in an auto-inhibitory conformation thus preventing S2-cleavage, while a non-inhibitory antibody is not expected to have an effect on S2-cleavage.
# Site 2 (S2)-cleavage of the Notch3 receptor was assessed by western blot analysis of the protein using the D11B8 (Cell Signaling Technologies) antibody which recognizes an epitope surrounding Glu2312 in the C-terminal domain. HCC2429 and MDA-MB-468 breast cancer cells were used to examine the effects of inhibitory anti-Notch3 antibody hu75 and non-inhibitory anti-Notch3 antibody hu28 on S2-cleavage. For the assay, 1-2.5×10^6 cells were plated in complete growth medium. […] Notch3 was detected with D11B8 antibody and, as a loading control, anti-GAPDH (Sigma) using standard western blot procedures.
# OVCAR3 = target: T1, OVCAR3 (Homo sapiens, UniProt Q9UM47); assay: Flow cytometry (FACS) binding, OVCAR3; settings: 4 μg/mL antibody
# T1 construct: Notch3 endogenously expressing cells MDA-MB-468, HCC2429 and OVCAR3; endogenous in cells; host or cells: OVCAR3
# T1 sequence (Q9UM47 40-2321): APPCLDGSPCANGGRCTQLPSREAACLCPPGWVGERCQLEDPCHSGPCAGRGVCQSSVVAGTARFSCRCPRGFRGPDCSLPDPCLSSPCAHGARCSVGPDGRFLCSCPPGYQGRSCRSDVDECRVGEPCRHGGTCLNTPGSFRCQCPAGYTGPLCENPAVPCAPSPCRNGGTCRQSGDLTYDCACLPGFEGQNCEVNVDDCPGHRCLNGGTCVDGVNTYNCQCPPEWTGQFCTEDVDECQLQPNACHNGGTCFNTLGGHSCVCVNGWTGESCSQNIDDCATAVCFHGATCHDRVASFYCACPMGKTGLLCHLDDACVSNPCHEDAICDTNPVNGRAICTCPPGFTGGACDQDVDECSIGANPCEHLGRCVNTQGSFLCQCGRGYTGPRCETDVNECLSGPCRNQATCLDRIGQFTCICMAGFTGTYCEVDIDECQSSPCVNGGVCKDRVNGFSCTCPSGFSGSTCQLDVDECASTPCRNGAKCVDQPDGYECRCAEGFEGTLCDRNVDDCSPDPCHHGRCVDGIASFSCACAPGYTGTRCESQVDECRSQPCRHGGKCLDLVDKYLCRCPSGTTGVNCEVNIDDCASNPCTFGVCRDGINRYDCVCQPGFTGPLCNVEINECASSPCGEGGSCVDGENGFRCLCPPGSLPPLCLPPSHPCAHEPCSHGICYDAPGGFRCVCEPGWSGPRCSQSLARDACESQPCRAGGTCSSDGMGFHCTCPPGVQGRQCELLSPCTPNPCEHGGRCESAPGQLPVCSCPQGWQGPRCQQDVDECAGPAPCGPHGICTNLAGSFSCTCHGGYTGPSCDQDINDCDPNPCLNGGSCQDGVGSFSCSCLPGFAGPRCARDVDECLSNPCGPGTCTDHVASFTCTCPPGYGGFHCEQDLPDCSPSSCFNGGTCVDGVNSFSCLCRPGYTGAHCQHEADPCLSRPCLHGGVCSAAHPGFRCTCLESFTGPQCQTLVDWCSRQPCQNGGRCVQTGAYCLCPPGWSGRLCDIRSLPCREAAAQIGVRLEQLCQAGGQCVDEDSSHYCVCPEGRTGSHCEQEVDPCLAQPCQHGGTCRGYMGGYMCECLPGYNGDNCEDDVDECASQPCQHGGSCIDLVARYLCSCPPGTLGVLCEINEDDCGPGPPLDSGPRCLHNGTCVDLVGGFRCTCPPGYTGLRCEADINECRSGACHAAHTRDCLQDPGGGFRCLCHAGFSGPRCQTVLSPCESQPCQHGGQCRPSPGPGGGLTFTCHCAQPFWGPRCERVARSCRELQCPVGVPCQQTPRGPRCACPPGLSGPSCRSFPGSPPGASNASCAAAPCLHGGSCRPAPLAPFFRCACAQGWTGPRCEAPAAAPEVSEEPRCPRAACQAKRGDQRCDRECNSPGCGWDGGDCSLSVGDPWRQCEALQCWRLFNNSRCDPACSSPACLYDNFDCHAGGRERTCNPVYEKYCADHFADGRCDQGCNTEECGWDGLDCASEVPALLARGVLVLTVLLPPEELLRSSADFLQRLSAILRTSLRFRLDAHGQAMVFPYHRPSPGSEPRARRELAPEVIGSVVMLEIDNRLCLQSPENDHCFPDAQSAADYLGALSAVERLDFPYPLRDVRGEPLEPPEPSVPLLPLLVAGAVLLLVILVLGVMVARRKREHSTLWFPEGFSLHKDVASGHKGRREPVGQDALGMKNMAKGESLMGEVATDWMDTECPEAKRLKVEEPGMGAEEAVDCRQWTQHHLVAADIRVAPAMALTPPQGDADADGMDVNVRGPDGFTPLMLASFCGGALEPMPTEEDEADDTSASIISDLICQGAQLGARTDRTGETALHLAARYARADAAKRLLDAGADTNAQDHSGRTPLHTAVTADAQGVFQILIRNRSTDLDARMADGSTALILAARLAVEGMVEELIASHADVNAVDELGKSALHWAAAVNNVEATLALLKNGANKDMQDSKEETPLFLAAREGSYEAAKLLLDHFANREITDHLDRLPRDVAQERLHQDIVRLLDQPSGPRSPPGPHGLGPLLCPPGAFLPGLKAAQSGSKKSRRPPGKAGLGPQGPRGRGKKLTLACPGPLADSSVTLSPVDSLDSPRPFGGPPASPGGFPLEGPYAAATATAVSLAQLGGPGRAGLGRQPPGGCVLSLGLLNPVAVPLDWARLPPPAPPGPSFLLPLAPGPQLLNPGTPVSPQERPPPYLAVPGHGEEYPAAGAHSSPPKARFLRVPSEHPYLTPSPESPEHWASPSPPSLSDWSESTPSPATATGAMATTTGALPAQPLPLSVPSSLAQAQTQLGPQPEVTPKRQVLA
# Description: Unconjugated anti-Notch3 antibodies, hu28 and hu75, were examined for cell surface binding activity to Notch3 expressing cell lines by flow cytometry. Fluorescence activated cell sorting (FACS) analysis was conducted according to standard procedures. Cells were rinsed in HBSS with calcium chloride and magnesium chloride (herein termed HBSS++), harvested using trypsin without EDTA and neutralized with medium containing FBS. Cells were incubated on ice for 30 minutes with 4 μg/mL anti-Notch3 antibodies, hu28 and hu75, in HBSS++containing 3% HICS (heat-inactivated calf serum). Cells were washed three times with cold HBSS++, 3% HICS buffer. Cells were incubated in allophycocyanin-conjugated AffiniPure F(ab′)2 fragment goat anti-human IgG, Fc fragment secondary antibody (Jackson ImmunoResearch Laboratories, Inc., West Grove, Pa.) at 10 μg/mL for 30 minutes on ice in the dark. Cells were washed once with cold HBSS++/3% HICS buffer. Cells were resuspended in HBSS-++/3% HICS, 25 mM HEPES, 1 mM MgCl2 and 25 μg/ml DNaseI. 7-AAD (7-Amino-Actinomycin D) was added for exclusion of nonviable cells. Live cells were analyzed on a BD FACSCalibur flow cytometer (BD Biosciences, San Jose, Calif.). Mean fluorescence intensity (MFI) from channel FL-4 was calculated with FlowJo flow cytometry analysis software (Ashland, Oreg.).
# HCC2429 (lung cancer) = assay: In vitro cytotoxicity (MTS), HCC2429; format: cell-based, human; settings: HCC2429; data not shown
# Outline: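 Cells with endogenous Notch3 cultured four days with increasing concentrations of anti-Notch3 ADCs (chimeric or humanized antibodies with various linker-payloads, including cysteine-mutant conjugates); non-targeted ADCs served as specificity controls. Viability by MTS; IC50 from logistic non-linear regression, expressed as ng Ab/mL, with DAR given.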
molecule,measurement,setting,value
B1,detection of S1- and S2-cleaved Notch3 C-terminal fragments,[1],both S1- and S2-cleaved Notch3 C-terminal fragments were detected
same,MFI,OVCAR3,116
same,effect of unconjugated antibody on viability,HCC2429 (lung cancer),did not affect the viability
